Laboratory results reported in US20240084019A1 (OSE IMMUNOTHERAPEUTICS, published 2024).
Substitutions are numbered along the chain they refer to.

T1: Biot-C7 peptide: biotinylated NH2-PYHTLNLLELHHTAMPGSVFSLGLPLATALAIA-COOH (human, biotinylated (position not given))
T1 construct: also called C7biot; biotinylated antigen-specific peptide
T1 peptide: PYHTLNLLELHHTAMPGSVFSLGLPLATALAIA

B1: anti-CMKLR1 antibody 2G1 (parental chimeric antibody) (antibody, human IgG1, V domains shown)
VH: EVQLVASGGGLVQPGGSLKLSCAASGFTFSSYGMSWVRQTPDRRLELVATINRYGGSTYYPDSVKGRFTISRDNAKNTLYLQMSSLKSEDTAMYYCPRLIYYGNEGDSWGQGTTLTVSS
VL: QIVLTQSPAIMSASPGEKVTMTCSASSSVSFMHWYQQKSGTSPKRWIYDTTKLTSGVPARFSGSGSGTFYSLTISSMEAEDAATYYCQQWNSKPPLTFGPGTKLELKR
notes: also called 2G1 wt; 2G1 WT
B2: HDLD humanized anti-CMKLR1 antibody (antibody, human IgG1, V domains shown)
VH: EVQLVESGGGLVQPGGSLRLSCAASGFTFSSYAMSWVRQAPGKGLELVATINRYGGSTYYAASVKGRFTISRDNSKNTLYLQMNSLRAEDTAVYYCPKLIYYGNEGDSWGQGTLVTVSS
VL: AIQLTQSPSSLSASVGDRVTITCRASQSVSFLHWYQQKPGKAPKRWIYDATKLTSGVPSRFSGSGSGTDFTLTISSLQPEDFATYYCQQWQSKPPLTFGGGTKVEIK
notes: Variable domains only; fused to constant fragment of human immunoglobulin (human IgG1, kappa)
B3: HD-LDT52S humanized anti-CMKLR1 antibody (antibody, V domains shown)
VH: B2 VH
VL: B2 VL with T51S
notes: fused to constant fragment of human immunoglobulin
B4: HEF-LDT52S humanized anti-CMKLR1 antibody (antibody, V domains shown)
VH: B2 VH with A49S, N52S, R53G, Y54S
VL: B2 VL with T51S
notes: as for B3
B5: HEF-LEF humanized anti-CMKLR1 antibody (antibody, V domains shown)
VH: B2 VH with A49S, N52S, R53G, Y54S
VL: B2 VL with W46L, T51S, T54E
notes: as for B3
B6: HALA humanized anti-CMKLR1 antibody (VHvAv3-23*04 + VLvAv1-13*01) (antibody, human IgG1, V domains shown)
VH: B2 VH with A33G, A61P, A62D, K98R
VL: B2 VL with R24S, Q27S, L32M, A50T, F70Y, Q91N
notes: Variable domains only; also called germline antibody HALA; IGHV3-23*04 + IGKV1-13*02
B7: HCLC humanized anti-CMKLR1 antibody (antibody, human IgG1, V domains shown)
VH: B2 VH with A33G
VL: B2 VL with Q91N
notes: as for B2
B8: HCLD humanized anti-CMKLR1 antibody (antibody, human IgG1, V domains shown)
VH: B2 VH with A33G
VL: B2 VL
notes: as for B2
B9: HDLC humanized anti-CMKLR1 antibody (antibody, human IgG1, V domains shown)
VH: B2 VH
VL: B2 VL with Q91N
notes: as for B2

Target: T1, Biot-C7 peptide: biotinylated …
Assay: activity ELISA on Biot-C7 peptide; column head printed ED50 (ng/ml)

Binder	EC50 [µg/mL]
B1	0.222
B2	0.193
B3	0.237
B4	0.126
B5	0.183

Target: T1, Biot-C7 peptide: biotinylated …
Assay: activity ELISA on Biot-C7 peptide; column head printed ED50 (ng/ml); second batch, no number

Binder	EC50 [µg/mL]
B6	0.195

Target: T1, Biot-C7 peptide: biotinylated …
Assay: activity ELISA on biotinylated C7 peptide; column head printed ED50 (ng/ml)

Binder	EC50 [µg/mL]
B1	0.269
B2	0.195
B6	0.557
B7	0.167
B8	0.333
B9	0.197

Target: T1, Biot-C7 peptide: biotinylated …
Assay: activity ELISA on Biot-C7 peptide; column head printed ED50 (ng/ml); batch #170919

Binder	EC50 [µg/mL]
B6	0.253
